These results are taken from patent US20230057012A1, “TGFB INHIBITORS AND USE THEREOF” (Scholar Rock, Inc., priority 2020, published 2023).

The assay concerns the target antigen of FIG. 2 (not named). Briefly: SPR Biacore, Fab (FIG. 2).

B1: Ab46 Fab (Fab, V domains shown)
VH: EVQLLESGGGLVQPGGSLRLSCAASGFTFADYAMTWVRQAPGKGLEWVSAISGSGAATYFADSVKGRFTISRDNSKNTLYLQMNSLRAEDTAVYYCARVSSGHWDYDYWGQGTLVTVSS
VL: DIQLTQSPSSLSASVGDRVTITCRASQSISSYLNWYQQKPGKAPKLLIYAASGLESGVPSRFSGSGSGTDFTLTISSLQPEDFATYYCQQTYGVPLTFGGGTKVEIK
B1: the times longer bound than the reference antibody is greater than 50 fold.
